# Measurements published in US20210032299A1 (Eli Lilly, published 2021).
# Starred links: 1 amine or outer side, 2 acyl side, 3 side chain; linkers in the order of their positions; H or OH if unused. Non-standard residues stand in square brackets, D forms with d. Groups on a side chain read outwards from the residue. No end group written: not given here. *: point of attachment. C20 diacid = O=C(O)CCCCCCCCCCCCCCCCCCC(=O)*; C18 diacid = O=C(O)CCCCCCCCCCCCCCCCC(=O)*; γGlu = O=C(O)[C@H](CCC(=O)[*:2])N[*:1]; 4Pal = N[C@@H](Cc1ccncc1)C(=O)O; AEEA = NCCOCCOCC(=O)O; Aib = CC(C)(N)C(=O)O
# T1: human glucose-dependent insulinotropic peptide receptor (human, UniProt P48546 22-466)
# T1 sequence (looked up): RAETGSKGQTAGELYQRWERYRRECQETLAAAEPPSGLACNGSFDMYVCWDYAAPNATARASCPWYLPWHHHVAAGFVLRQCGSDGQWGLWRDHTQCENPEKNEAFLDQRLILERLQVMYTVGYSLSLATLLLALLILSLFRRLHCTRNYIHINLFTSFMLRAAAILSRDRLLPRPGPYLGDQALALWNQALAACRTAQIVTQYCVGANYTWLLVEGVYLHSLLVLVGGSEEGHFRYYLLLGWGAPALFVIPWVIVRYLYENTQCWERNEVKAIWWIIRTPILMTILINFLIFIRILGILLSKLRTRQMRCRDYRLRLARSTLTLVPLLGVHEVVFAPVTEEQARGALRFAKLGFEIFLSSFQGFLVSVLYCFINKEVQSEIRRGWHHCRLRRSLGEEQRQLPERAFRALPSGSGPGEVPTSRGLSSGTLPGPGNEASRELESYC
# Key:
# Assay in all cases: cell-based or functional assay
# [1] = target: human GLP-1 receptor (human, UniProt P43220 24-463)
# [2] = target: human glucagon receptor (human, UniProt P47871 26-477)
# [3] = target: T1, human glucose-dependent insulinotropic …
# Chain of human glucagon receptor (P47871 26-477): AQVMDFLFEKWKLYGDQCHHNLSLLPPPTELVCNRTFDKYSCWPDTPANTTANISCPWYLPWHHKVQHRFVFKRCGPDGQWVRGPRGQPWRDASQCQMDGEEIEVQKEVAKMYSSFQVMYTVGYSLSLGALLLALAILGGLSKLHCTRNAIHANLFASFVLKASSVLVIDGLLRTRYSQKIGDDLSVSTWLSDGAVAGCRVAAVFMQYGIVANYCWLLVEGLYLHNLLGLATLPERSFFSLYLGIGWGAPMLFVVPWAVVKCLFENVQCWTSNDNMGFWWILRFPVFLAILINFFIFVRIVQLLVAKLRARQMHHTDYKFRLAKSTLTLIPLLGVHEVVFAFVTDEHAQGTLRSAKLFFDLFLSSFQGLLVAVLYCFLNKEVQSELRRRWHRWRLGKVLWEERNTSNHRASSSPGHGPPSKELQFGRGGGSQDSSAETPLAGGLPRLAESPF
Binder,hGLP1R cAMP Rel EC50 [1] [nM],hGcgR cAMP Rel EC50 [2] [nM],hGIPR cAMP Rel EC50 [3] [nM]
Y[Aib]EGTFISDYSILLDKK([AEEA-AEEA-γGlu-C18 diacid])HQ[Aib]DFVE[4Pal]LLAGGPSSGAPPPS-NH2 (N-terminus assumed; SMILES CC[C@H](C)[C@H](NC(=O)[C@H](CO)NC(=O)[C@H](Cc1ccc(O)cc1)NC(=O)[C@H](CC(=O)O)NC(=O)[C@H](CO)NC(=O)[C@@H](NC(=O)[C@H](Cc1ccccc1)NC(=O)[C@@H](NC(=O)CNC(=O)[C@H](CCC(=O)O)NC(=O)C(C)(C)NC(=O)[C@@H](N)Cc1ccc(O)cc1)[C@@H](C)O)[C@@H](C)CC)C(=O)N[C@@H](CC(C)C)C(=O)N[C@@H](CC(C)C)C(=O)N[C@@H](CC(=O)O)C(=O)N[C@@H](CCCCN)C(=O)N[C@@H](CCCCNC(=O)COCCOCCNC(=O)COCCOCCNC(=O)CC[C@H](NC(=O)CCCCCCCCCCCCCCCCC(=O)O)C(=O)O)C(=O)N[C@@H](Cc1c[nH]cn1)C(=O)N[C@@H](CCC(N)=O)C(=O)NC(C)(C)C(=O)N[C@@H](CC(=O)O)C(=O)N[C@@H](Cc1ccccc1)C(=O)N[C@H](C(=O)N[C@@H](CCC(=O)O)C(=O)N[C@@H](Cc1ccncc1)C(=O)N[C@@H](CC(C)C)C(=O)N[C@@H](CC(C)C)C(=O)N[C@@H](C)C(=O)NCC(=O)NCC(=O)N1CCC[C@H]1C(=O)N[C@@H](CO)C(=O)N[C@@H](CO)C(=O)NCC(=O)N[C@@H](C)C(=O)N1CCC[C@H]1C(=O)N1CCC[C@H]1C(=O)N1CCC[C@H]1C(=O)N[C@@H](CO)C(N)=O)C(C)C) [Example 22],> 5000,1250,0.0345
YXEGTFISDYSILLDKKAQXDFVEWLLAQGPSSGAPPPS (D-Ala2; K17((2-[2-(2-Amino-ethoxy)-ethoxy]-acetyl)2-(γ-Glu)-CO-(CH2)16-CO2H); Aib20; C-terminal amide) [Example 16],> 5000,> 5000,0.00937
YXEGTFISDYSILLDKKAQXEFVNWLLAQGPSSGAPPPS (D-Ala2; K17((2-[2-(2-Amino-ethoxy)-ethoxy]-acetyl)2-(γ-Glu)-CO-(CH2)16-CO2H); Aib20; C-terminal amide) [Example 20],> 5000,> 5000,0.00933
YXEGTFISDYSILLDKKAQXDFVNWLLEQGPSSGAPPPS (D-Ala2; K17((2-[2-(2-Amino-ethoxy)-ethoxy]-acetyl)2-(γ-Glu)-CO-(CH2)16-CO2H); Aib20; C-terminal amide) [Example 17],> 5000,> 5000,0.0135
YXEGTFISDYSILLDKKAQXDFVNXLLAQGPSSGAPPPS (D-Ala2; K17((2-[2-(2-Amino-ethoxy)-ethoxy]-acetyl)2-(γ-Glu)-CO-(CH2)16-CO2H); Aib20; 4-Pal25; C-terminal amide) [Example 18],> 5000,> 5000,0.00656
YXEGTFISDYSILLDKKAQXDFVNWLLAGGPSSGAPPPS (D-Ala2; K17((2-[2-(2-Amino-ethoxy)-ethoxy]-acetyl)2-(γ-Glu)-CO-(CH2)16-CO2H); Aib20; C-terminal amide) [Example 19],> 5000,> 5000,0.00992
Y[dA]EGTFISDYSILLDKK([AEEA-AEEA-γGlu-C20 diacid])HQQDFVEWLLAQGPSSGAPPPS-NH2 (N-terminus assumed; SMILES CC[C@H](C)[C@H](NC(=O)[C@H](CO)NC(=O)[C@H](Cc1ccc(O)cc1)NC(=O)[C@H](CC(=O)O)NC(=O)[C@H](CO)NC(=O)[C@@H](NC(=O)[C@H](Cc1ccccc1)NC(=O)[C@@H](NC(=O)CNC(=O)[C@H](CCC(=O)O)NC(=O)[C@@H](C)NC(=O)[C@@H](N)Cc1ccc(O)cc1)[C@@H](C)O)[C@@H](C)CC)C(=O)N[C@@H](CC(C)C)C(=O)N[C@@H](CC(C)C)C(=O)N[C@@H](CC(=O)O)C(=O)N[C@@H](CCCCN)C(=O)N[C@@H](CCCCNC(=O)COCCOCCNC(=O)COCCOCCNC(=O)CC[C@H](NC(=O)CCCCCCCCCCCCCCCCCCC(=O)O)C(=O)O)C(=O)N[C@@H](Cc1c[nH]cn1)C(=O)N[C@@H](CCC(N)=O)C(=O)N[C@@H](CCC(N)=O)C(=O)N[C@@H](CC(=O)O)C(=O)N[C@@H](Cc1ccccc1)C(=O)N[C@H](C(=O)N[C@@H](CCC(=O)O)C(=O)N[C@@H](Cc1c[nH]c2ccccc12)C(=O)N[C@@H](CC(C)C)C(=O)N[C@@H](CC(C)C)C(=O)N[C@@H](C)C(=O)N[C@@H](CCC(N)=O)C(=O)NCC(=O)N1CCC[C@H]1C(=O)N[C@@H](CO)C(=O)N[C@@H](CO)C(=O)NCC(=O)N[C@@H](C)C(=O)N1CCC[C@H]1C(=O)N1CCC[C@H]1C(=O)N1CCC[C@H]1C(=O)N[C@@H](CO)C(N)=O)C(C)C) [Example 14],> 100,> 5000,0.34
Y[Aib]EGTFISDYSIALDKK([AEEA-AEEA-γGlu-C18 diacid])HQ[Aib]DFVE[4Pal]LLAGGPSSGAPPPS-NH2 (N-terminus assumed; SMILES CC[C@H](C)[C@H](NC(=O)[C@H](CO)NC(=O)[C@H](Cc1ccc(O)cc1)NC(=O)[C@H](CC(=O)O)NC(=O)[C@H](CO)NC(=O)[C@@H](NC(=O)[C@H](Cc1ccccc1)NC(=O)[C@@H](NC(=O)CNC(=O)[C@H](CCC(=O)O)NC(=O)C(C)(C)NC(=O)[C@@H](N)Cc1ccc(O)cc1)[C@@H](C)O)[C@@H](C)CC)C(=O)N[C@@H](C)C(=O)N[C@@H](CC(C)C)C(=O)N[C@@H](CC(=O)O)C(=O)N[C@@H](CCCCN)C(=O)N[C@@H](CCCCNC(=O)COCCOCCNC(=O)COCCOCCNC(=O)CC[C@H](NC(=O)CCCCCCCCCCCCCCCCC(=O)O)C(=O)O)C(=O)N[C@@H](Cc1c[nH]cn1)C(=O)N[C@@H](CCC(N)=O)C(=O)NC(C)(C)C(=O)N[C@@H](CC(=O)O)C(=O)N[C@@H](Cc1ccccc1)C(=O)N[C@H](C(=O)N[C@@H](CCC(=O)O)C(=O)N[C@@H](Cc1ccncc1)C(=O)N[C@@H](CC(C)C)C(=O)N[C@@H](CC(C)C)C(=O)N[C@@H](C)C(=O)NCC(=O)NCC(=O)N1CCC[C@H]1C(=O)N[C@@H](CO)C(=O)N[C@@H](CO)C(=O)NCC(=O)N[C@@H](C)C(=O)N1CCC[C@H]1C(=O)N1CCC[C@H]1C(=O)N1CCC[C@H]1C(=O)N[C@@H](CO)C(N)=O)C(C)C) [Example 21],> 5000,> 5000,0.291
Y[dA]EGTFISDYSILLDKK([AEEA-AEEA-γGlu-C20 diacid])HQQEFVNWLLAQGPSSGAPPPS-NH2 (N-terminus assumed; SMILES CC[C@H](C)[C@H](NC(=O)[C@H](CO)NC(=O)[C@H](Cc1ccc(O)cc1)NC(=O)[C@H](CC(=O)O)NC(=O)[C@H](CO)NC(=O)[C@@H](NC(=O)[C@H](Cc1ccccc1)NC(=O)[C@@H](NC(=O)CNC(=O)[C@H](CCC(=O)O)NC(=O)[C@@H](C)NC(=O)[C@@H](N)Cc1ccc(O)cc1)[C@@H](C)O)[C@@H](C)CC)C(=O)N[C@@H](CC(C)C)C(=O)N[C@@H](CC(C)C)C(=O)N[C@@H](CC(=O)O)C(=O)N[C@@H](CCCCN)C(=O)N[C@@H](CCCCNC(=O)COCCOCCNC(=O)COCCOCCNC(=O)CC[C@H](NC(=O)CCCCCCCCCCCCCCCCCCC(=O)O)C(=O)O)C(=O)N[C@@H](Cc1c[nH]cn1)C(=O)N[C@@H](CCC(N)=O)C(=O)N[C@@H](CCC(N)=O)C(=O)N[C@@H](CCC(=O)O)C(=O)N[C@@H](Cc1ccccc1)C(=O)N[C@H](C(=O)N[C@@H](CC(N)=O)C(=O)N[C@@H](Cc1c[nH]c2ccccc12)C(=O)N[C@@H](CC(C)C)C(=O)N[C@@H](CC(C)C)C(=O)N[C@@H](C)C(=O)N[C@@H](CCC(N)=O)C(=O)NCC(=O)N1CCC[C@H]1C(=O)N[C@@H](CO)C(=O)N[C@@H](CO)C(=O)NCC(=O)N[C@@H](C)C(=O)N1CCC[C@H]1C(=O)N1CCC[C@H]1C(=O)N1CCC[C@H]1C(=O)N[C@@H](CO)C(N)=O)C(C)C) [Example 13],> 100,> 5000,0.129
Y[dA]EGTFISDYSILLDKK([AEEA-AEEA-γGlu-C20 diacid])HQQDFVNYLLAQGPSSGAPPPS-NH2 (N-terminus assumed; SMILES CC[C@H](C)[C@H](NC(=O)[C@H](CO)NC(=O)[C@H](Cc1ccc(O)cc1)NC(=O)[C@H](CC(=O)O)NC(=O)[C@H](CO)NC(=O)[C@@H](NC(=O)[C@H](Cc1ccccc1)NC(=O)[C@@H](NC(=O)CNC(=O)[C@H](CCC(=O)O)NC(=O)[C@@H](C)NC(=O)[C@@H](N)Cc1ccc(O)cc1)[C@@H](C)O)[C@@H](C)CC)C(=O)N[C@@H](CC(C)C)C(=O)N[C@@H](CC(C)C)C(=O)N[C@@H](CC(=O)O)C(=O)N[C@@H](CCCCN)C(=O)N[C@@H](CCCCNC(=O)COCCOCCNC(=O)COCCOCCNC(=O)CC[C@H](NC(=O)CCCCCCCCCCCCCCCCCCC(=O)O)C(=O)O)C(=O)N[C@@H](Cc1c[nH]cn1)C(=O)N[C@@H](CCC(N)=O)C(=O)N[C@@H](CCC(N)=O)C(=O)N[C@@H](CC(=O)O)C(=O)N[C@@H](Cc1ccccc1)C(=O)N[C@H](C(=O)N[C@@H](CC(N)=O)C(=O)N[C@@H](Cc1ccc(O)cc1)C(=O)N[C@@H](CC(C)C)C(=O)N[C@@H](CC(C)C)C(=O)N[C@@H](C)C(=O)N[C@@H](CCC(N)=O)C(=O)NCC(=O)N1CCC[C@H]1C(=O)N[C@@H](CO)C(=O)N[C@@H](CO)C(=O)NCC(=O)N[C@@H](C)C(=O)N1CCC[C@H]1C(=O)N1CCC[C@H]1C(=O)N1CCC[C@H]1C(=O)N[C@@H](CO)C(N)=O)C(C)C) [Example 15],> 100,> 5000,0.282
